In patent US6399759:

Tests used:
Assay in all cases: cell-based or functional assay
[1] = target: Soli E1 (Solenopsis invicta)
[2] = target: Soli C2 (Solenopsis invicta)
[3] = target: Soli C1 (Solenopsis invicta)
[4] = target: T1, Soli E2 (Solenopsis invicta)
T1 sequence: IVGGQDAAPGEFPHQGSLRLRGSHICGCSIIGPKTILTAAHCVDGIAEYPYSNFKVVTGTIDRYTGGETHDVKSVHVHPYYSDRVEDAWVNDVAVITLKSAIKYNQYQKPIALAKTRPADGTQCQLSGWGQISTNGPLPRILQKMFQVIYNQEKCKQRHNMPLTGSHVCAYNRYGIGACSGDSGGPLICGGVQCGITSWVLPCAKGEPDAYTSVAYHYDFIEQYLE

Soli E1 (Solenopsis invicta), sequence (main, as listed by the source): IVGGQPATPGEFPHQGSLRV
Soli C2 (Solenopsis invicta), sequence (main, as listed by the source): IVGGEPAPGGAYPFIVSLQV
Soli C1 (Solenopsis invicta), sequence (Q7SIG2 other isoform, or with tags, fused parts or gaps): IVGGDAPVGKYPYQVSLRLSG

B1: Soy Bean Trypsin Inhibitor I-S (protein, soybean, UniProt P01070 25-205, looked up)
chain: DFVLDNEGNPLENGGTYYILSDITAFGGIRAAPTGNERCPLTVVQSRNELDKGIGTIISSPYRIRFIAEGHPLSLKFDSFAVIMLCVGIPTEWSVVEDLPEGPAVKIGENKDAMDGWFRLERVSDDEFNNYKLVFCPQQAEDDKCGDIGISIDHDDGTRRLVVSKNKPLVVQFQKLDKESL
- IC50 [1]: 4.22 nM
- IC50 [2]: 1.41 nM
- IC50 [3]: 37 nM
- IC50 [4]: 5.58 nM
